Measurements from a protein production outcome set (Wang et al. 2014).

Assay: label from the status in PepcDB records

For “MSNKRIGVVIVSYGHEQDVANLVDTFADQLKTGDRVVVVDNRKPWVLKDAVGERLEKHGAEIINHDNGGFAAGCNVGAAHIVDDVDLLFFLNPDTVIDDPTLFNSLRRVDEQWAAFMPYLLLPDSTINSAGNALHISGLSWVTGLDEKPVEGSSEVTDISIASGACLAVRVDWWKRLGGMEELYFMYHEDTDFSARLLLAGGRIGLLHSAYVTHHYDYAKGDYKWIYIERNRHVLLLSVLPLPLLFVLIPQILGVNLGLWAIAAKEKRVGLKVKSLRLLIRDLPAIFKLRRSTQELAELTPSQYLAKMEWRLDNPNLGNIGSNKIVATGYKTYYKLCMSILKLLA”, the protein production was “failed”.
In the case of “ARGHRHTCKVMVLKEEAAGSERALALDMREGQRVFHSLIVHFENDIPVQIEDRFVNAQVAPDYLKQDFTLQTPYAYLSQVAPLTEGEHVVEAILAEADECKLLQIDAGEPCLLIRRRTWSGRQPVTAARLIHPGSRHRLEGRFTK”, the protein production is reported as “not failed”.
In the case of “WMVQDSVGSGAALASLEGEETGRLWLAAQPEHGFQTLQGLAYALAREVRRLQPDSPYRLAGKGVLGALAYEVGLQLRGMGQTVACVALEGAPAWVRQSEALAVERSQASLPAWLRRCLSSYVPEPGDFPLQPTNMPASAEAFWRALG”, the protein production is reported as “failed”.
With “MLTTLSCCCNMPVVKVNCWNNMKVQIKSITQWGGVLLLSFSSCYVNANKLIKPNILFIAVDDLKPLIRDYGTAKVQTPNIDKLASQSTVFTRAYSQYPVCGPSRMSILTGLRPESNGIMNLKDKIRDVNPSVITLPQFFKNNGYETAATGKIFDPRNTTSRSEEEVLSWSIPYQRPKHGLKGKTRLAVESIDEPDEKFVDGGILKRGKKLLKQMANKNKPFFLAVGFKKPHLPFVAPKKYYDLYSRESFDLASYQSAPEDADTTYLFHKNQELRGYKPTPIKGGEIKPYPKGKLSSAHQKELLHGYFASVSFIDSLVGELLEELEKTGQAENTVIVFWGDHGFHLGDHGLWGKHTTMEQANHVPLIIKIPGSKANRYAKPVELLDVFPSLTEAAGLSIPNNLQGTSLVSLVTGKLKSIDKVAISQYKRKGAYGYSMRTEQYRYTQWVTPSGKVVYRDLYDLINDPLETKNIINTPEGKLLEVELNKQLHTNSAGLKRLKLEHHHHHH” the protein production was “failed”.
With “KDDDNVETGAFDPSKPVAISDFTPKEGGAYQKLLIYGENFGTDVSKVKVKIGGKDAIVINVKSTYVYCFVPSGAFSGEIEITVGEGENAVTTTASTTFSYEKKMVVGTLCGYRNNRDDQGWRDGPFDGPEGVKCCGFSDNGRLAFDPLNKDHLYICYDGHKAIQLIDLKNRMLSSPLNINTIPTNRIRSIAFNKKIEGYADEAEYMIVAIDYDGKGDESPSVYIIKRNADGTFDDRSDIQLIAAYKQCNGATIHPINGELYFNSYEKGQVFRLDLVDYFKTIKNGGSWDPIVKNNPNTFKQLFTIADPSWEFQIFIHPTGKYAYFGVINNHYFMRSDYDEIKKEFITPYNFVGGYKQSGYRDDVGTEARMNNPCQGVFVKNPDYTGEEEYDFYFVDRLNFCVRKVTPEGIVSTYAGRGASTSLADGNQWGTDDGDLREVARFRDVSGLVYDDVKEMFYVHDQVGHTIRTISMEQEENVAGDENIPEDESTVESNE” the protein production was “not failed”.
In the case of “MSLFLKDDSIQIREVWNDNLQEEMDLIRDVVDDFPYVAMDTEFPGIVVRPVGTFKSNADYHYETLKTNVNILKMIQLGLTFSNEQGNLPTCGTDKYCIWQFNFREFDLDSDIFALDSIELLKQSGIDLAKNTLDGIDSKRFAELLMSSGIVLNENVHWVTFHSGYDFGYLLKLLTCQNLPDSQTDFFKLINVYFPTVYDIKHLMKFCNSLHGGLNKLAELLEVERVGICHQAGSDSLLTSCTFRKLKENFFVGPLHKYSGVLYGLGVENGQVAI”, the protein production is reported as “failed”.
In the case of “MSSRCLGCGTKFDSEAGRPRCPACRWEPEEIGGIAAYAPQFANQGGGFEASYFKVLSELEATNFWFRSRNDLILWALRKYHPKFRSFLEIGCGTGFVLSGVTGKYPEAEIFGSEIFIEGLRFASQRLPNARLMQMDARAIPFAEEFEAIGAFDVLEHIEEDETVLQQMHAALKPKGTLLVTVPQHPWLWSPLDDYAHHCRRYTANELSRKVTAAGFTILRNTSFVSFLLPAMLASRLLSRNKSVDEIDVRTEMQLPSLLNNAFRWILRAESALIGTGFDFPLGGSRLLVARKM”, the protein production is reported as “failed”.
For “MPTPGTGSVPELQLVPFQLGHFPILQRWFATEKELVQWAGPALRHPLSLEQMHEDLAESRRRPPLRLLWSACRDDQVIGHCQLLFDRRNGVVRLARIVLAPSARGQGLGLPMLEALLAEAFADADIERVELNVYDWNAAARHLYRRAGFREEGLRRSATRVGRERWNVVLMGLLRQEWAAGGAGND”, the protein production was “not failed”.
With “MEDKRISEKESLELIACMIRETQDNTARYAAYPLLIWGYTTVAISLVVWYFYLQTGVWQINFLWFALPVIAGPLTIFFNRKDKNKGAKNYIDRVTGQIWAVFGVVGFCLSCMAFVVRIDILFVISLLMGMGATLTGLVCKYKPLSIAGMTGIALSFSMLFIHGSGVYLVFAAIFIVMMIVPGHIMNKQMKKQCLKN” the protein production was “failed”.
For “MDKQKEQLSIEVARLYYQSDLGQQEIATRLGVSRPTVSRLLQNAKLKGYVKIEVQDPFSNLTELANALKEKYQLKNVTVAFSQTNDYSEISKQISQSAAEYLEEIIHDDDILGVSWGTTMYKIAQKLSPQKAEIKVVQLKGGVSHSDVNTYAAETLALFGAAYDTAPVSLPLPVVLDNPLAKQMVEADRHIKNIIELGKKANIAIFTVGTVREEALLFRLGYFSDEEKIRLKEKAVGDICSRFFTINGEIADEKMNERTIGIDLQDLKQKETAILVAGGERKIKAIHGALRGGYANHFITDQYTAKQLLEQNFSN”, the protein production was “failed”.
For “MTAIPRAPLILGLAGLIPFLWGALTYLSPAAQAWGAAALGPRFVGPYVQIAYGQIILAFMSGVLWGFATKADDRRAATGYVLAVLPALWAFFMTGGGPTGAAINLIFGFLGLLMLDAAFASWGLAPVWWMRLRLLLTAVVTICLAVGAFL”, the protein production was “failed”.
With “MKAYPYIFLLLISSSLAASQEDKLYEAARSALNDNKYSEALIHVKNILKISPEHLASNILIAEILLADGSASAAEASLTKAVSLGANKKQLRLLFAESYIMQGQYNKTLDYLPEQTNDDKLAAKIYVLRGDAHLGLRQLKLSQNDYNTALAFDAKNIDAKLGLAQIAVNYFQFHQAEKLVDEVLSGYIPPIKAWNLKASIQQSLGNNELALNAINQALLIDKNNIQSLIFASTINIELQQFELAEKYADTVLEQVPNEPKAEFIKAMVQVRKNENAGFESAIETVAQVLDHLSEDVLRSNPSYYYLASIILFHQQKHEAARQYIDDYLLIDENNINALTLAATIELVEKKPMQAKTLLSRANFLDPDNPKILSMLGMTYLELRQYEKAHFYLAKVKELKPNLGIADTQLAQSYLATGKPEKAIKHLLTASAAEYDPTVVGLLLVESYIKSGKMNKGISVAKNLAENMPDNANIQHHLGYIYQISGEIEKAKHQFEQALIIEPNHAKSIISLANLDYQKGNADIAIDRLKAALIISANDIDLITALAKFYNRTNNSAASVILLEEPFKLDNQNEELLKNLIVSYVGDKQLMLAIETLNTYLLNQRKTVELYLMLASLQIMNSDVNSAVSAYKSAIKQDGDKGTIYLLIAHAYQRFSKVPEAITAYKKSMAWDGDNDKAIIGLAQLYNAENDTDSAIKLIKSFEVNHQLSAQLVEVLANSYLRINQYKLAEMYYKKRIKLASNDSSVVGLNLIYRATKRTSKAVDLLTTSLNDRPNSLFLNTALAELYIDQSQWLNADKIYQTLVQLYPKQPAILNNASYVALNLSDYPRAEALVKRSLALVDNQPDSLDTLGWVYYHTKEFNKALPLFRKALAINNSNPAVKYHLALTLKALNRDKEAIKLMVDVVNSDYSQKADADVLLKQWLK” the protein production was “failed”.
For “MKYTYKQIWLINFPVMMSILMEQLINITDAVFLGHVGEIELGASALAGIYYLAIYMLGFGFSIGLQVMIARRNGEQHYKETGRTFFQGLYFLMVMAIMLCLLIHLVSPFILQQLITSDEIYQAVIRYLNWRSFGLLFSFPFLAFRAFLVGVTNTKLLSGAALTAVCINIPFNYLLIFKLDMGISGAAMASSIAEFGAFLILLLYMCKTVDKKKYGLSAVYDGRLLMKLLQLSVWSMLHAFISVAPWFLFFVAIEHLGKTELAISNITRSVSTLFFVIVNSFASTTGSLVSNLIGGGQGKELFPVCRKVLRLGYVVGLPLILTALWGNQWIIGFYTNNDYLVKLAFWPFIVMLLNYVFALPGYVYINAVTGTGKTRLAFVFQLVTILIYLIYLYLLSECFHASLTVYMTAEYLFVILLGIQSILYLKRKSKQNMYFCTFND”, the protein production was “failed”.
For “MKKIICYLSLSALSLSSFSQTQIANGDFENWSSSEYCSALDSLDNFLTGQAFFYLNAKNETDAIECPALPFTYKTTDKQSGSYALKLGPQYFDDKAYYNFVTLGEAAYFEEEGSVASFGIPFTGRPSKLTGYYKCTAGAVGDELQIKVFGSNFTSEDPLFYGVFTASENQPMYEKFEIDLVYDPTDPNNAVYLSMLITVGNLNDGSIDENTVAFIDNLVFEYDATAATSYTPVSPIHVFASNKTISFSEHVSDIHVVDMVGANNIQEAASTKTLHAETLNSGLYIVTYNYKGNYFSKKVVIE”, the protein production was “failed”.
With “MPKLDRYLLSDFTQSFLATLIVLLVVSVGGVLVDILGNIADGRIPARLLLSQVGLQFVAYLPIILPLALMLGLLLALARLYRDSEMAVITAIGVGPTRMLRPLLMLVVPVVVVIGLCSLWLGPWASRTAEAMLEDANRSVLMAGLESGQFTPLSDGGVVYMQTISADGKGLGKIFLQRQQNDRIDVVTADRGALFFEGKTDRYLHLDDGYRTEGPAGGATLDYRLMKFASSDIALPDRTRLHDANDPEVMWTTQLLSDERPAARAQLHERLAPPLLALAFAMLTLPLSRSAPRQQRYGRIMLAFLAYMVGTNLMIVGTQWIANGKAPAALGLWWLTLPLLAVAVWAYARDGRVRRPRARA” the protein production was “failed”.
With “MAIERIQLHTHGDDRGLLISLEQQRNVPFEIRRVYYLFGTRHDVHRGQHAHRQLNQFAVALHGSVTILLDEGNGNGPSEVVLDDPSQGLLLGRMVWRDLYRFSADCVLMVLADQPYDPGDYILDYDQFVSEVRNGTALQARRLEA” the protein production was “failed”.
For “MEEVLPNVYLIDTLKYVEPGVISAYAVVHERAAIIDPGTAKGAEIILDEIDRSWNVEYICPTHIHIDHGGGAARLAKALDAKIIVHPRGVKHVVNPEKLWEASKAVLGEVAEIYGKPESIDESKVIAVEDEQEFDLGGERLKVFHAPGHAPHMLVYYLTNSKVLFPADAVGMCFGGVVFPLTPPPFDADAALKTLKRLKGLKVDYVAFTHYGVVEGDWPIAKSYEKVKSWLEIAKEVANANGTVEEFVGRLRKEDEDVEKLFNVLGSKPVALSFIYTSATGMLDAARRMIE”, the protein production was “failed”.
In the case of “MNLLPGFAYIEMESISNLTPLVMKTLAGFIAGIPKAELHLHIEGTLEPEMMLALGERNGVPLPYPDADAAKSAYHFSDLQSFLDIYYRATAVLVTEQDFYDLTIAYLQKAVSRKVCHAEIFFDPQSHIARGVPFETVVGGIGQALSDANGGLGISTKLIMCILRHLSEEDGNAVLEQAVRWKRWISGIGLDSSEKGNPPGKFRELFAKARHYGFFTVAHAGEEGNASSISEALDALHVIRIDHGVHCMEDPVLVERLRLDRIPLTICPLSNVRLNVFGSMREHNLKTMLDAGLCVTINSDDPAYFGGYVNENYLAAAEALNLDRNDIIRLARNSFEASVLSNVQKKLYLQKLDHYVDSFIQ”, the protein production is reported as “failed”.
With “MGHHHHHHSHMPSYTVTVATGSQWFAGTDDYIYLSLVGSAGCSEKHLLDKPFYNDFERGAVDSYDVTVDEELGEIQLVRIEKRKYWLNDDWYLKYITLKTPHGDYIEFPCYRWITGDVEVVLRDGRAKLARDDQIHILKQHRRKELETRQKQYRWMEWNPGFPLSIDAKCHKDLPRDIQFDSEKGVDFVLNYSKAMENLFINRFMHMFQSSWNDFADFEKIFVKISNTISERVMNHWQEDLMFGYQFLNGCNPVLIRRCTELPEKLPVTTEMVECSLERQLSLEQEVQQGNIFIVDFELLDGIDANKTDPCTLQFLAAPICLLYKNLANKIVPIAIQLNQIPGDENPIFLPSDAKYDWLLAKIWVRSSDFHVHQTITHLLRTHLVSEVFGIAMYRQLPAVHPIFKLLVAHVRFTIAINTKAREQLICECGLFDKANATGGGGHVQMVQRAMKDLTYASLCFPEAIKARGMESKEDIPYYFYRDDGLLVWEAIRTFTAEVVDIYYEGDQVVEEDPELQDFVNDVYVYGMRGRKSSGFPKSVKSREQLSEYLTVVIFTASAQHAAVNFGQ” the protein production was “failed”.
